Results on four sequences are retold here after PMC4156411.

In general, pKd refers to −log10 of the Kd, conventionally taken in molar units.

pKd: −log10 of the molar value.

Common to all, as to experiment: ELASA
Holding throughout (conditions): ELASA: VLPs 3 ug/ml coated, blocked with 5% skim milk in PBST plus unrelated DNA, 1 uM biotinylated aptamer (10 nM-2 uM for Kd), 1 h at RT, PBST washes

Data set [1] has as its system GII.3 VLP, major capsid protein (Human norovirus GII.3).
The subject of data set [2] is GII.7 VLP, major capsid protein (Human norovirus GII.7).
The test system of data set [3] is GII.12 VLP, major capsid protein (Human norovirus GII.12).
Data set [4] addresses T1, GII.2 (SMV) VLP, major capsid protein (Human norovirus GII.2 (Snow Mountain virus)) (UniProt K7X601).
T1 sequence: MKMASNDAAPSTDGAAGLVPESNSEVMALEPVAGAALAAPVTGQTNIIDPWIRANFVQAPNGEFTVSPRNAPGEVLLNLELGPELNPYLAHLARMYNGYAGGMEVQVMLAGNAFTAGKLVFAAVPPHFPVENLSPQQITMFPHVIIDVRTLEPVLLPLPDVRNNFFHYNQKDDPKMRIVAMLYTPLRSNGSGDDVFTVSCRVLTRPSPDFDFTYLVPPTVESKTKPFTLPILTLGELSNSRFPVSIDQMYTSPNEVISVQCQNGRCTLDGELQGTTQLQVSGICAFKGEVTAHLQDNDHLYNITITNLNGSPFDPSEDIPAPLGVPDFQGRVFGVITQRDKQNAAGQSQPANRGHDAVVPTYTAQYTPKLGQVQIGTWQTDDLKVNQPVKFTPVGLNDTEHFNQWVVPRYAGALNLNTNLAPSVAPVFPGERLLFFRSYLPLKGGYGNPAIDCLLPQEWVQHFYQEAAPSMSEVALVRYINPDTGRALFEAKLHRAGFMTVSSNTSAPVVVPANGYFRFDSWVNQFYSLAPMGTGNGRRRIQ

The test system of data set [5] is GI.6 VLP, major capsid protein (Human norovirus GI.6).
Data set [6] has as its system GII.17 VLP, major capsid protein (Human norovirus GII.17).
Data set [7] concerns GII.6 VLP, major capsid protein (Human norovirus GII.6).
The test system of data set [8] is GI.8 VLP, major capsid protein (Human norovirus GI.8).
The subject of data set [9] is GII.1 VLP, major capsid protein (Human norovirus GII.1).
Data set [10] relates to GII.4 (Grimsby) VLP, major capsid protein (Human norovirus GII.4 (Grimsby virus)).
The subject of data set [11] is GI.7 VLP, major capsid protein (Human norovirus GI.7).
The test system of data set [12] is GI.4 VLP, major capsid protein (Human norovirus GI.4).
Data set [13] deals with GII.4 (Houston) VLP, major capsid protein (Human norovirus GII.4 (Houston)).

“AGTATACGTATTACCTGCAGCCACCAGTGTGTTGAGGTTTGAGCACACTGATAGAGTGTCACGATATCTCGGAGATCTTGC [SMV-19]”: the binding signal turned out to be 1.7 T/N ratio in data set [1]; 4 T/N ratio in data set [2]; 1.5 T/N ratio in data set [3]; 12.9 T/N ratio in data set [4]; 3.7 T/N ratio in data set [5]; 3 T/N ratio in data set [6]. Besides, the binding signal amounted to 1.8 T/N ratio in data set [7]; 1.7 T/N ratio in [8]; 7.1 T/N ratio in data set [9]; 9.6 T/N ratio in data set [10]; 10.3 T/N ratio in data set [11]; 1.7 T/N ratio in data set [12]. Also, the binding signal in data set [13] was 12.5 T/N ratio. In addition, the pKd in data set [4] was 6.72.
As to “AGTATACGTATTACCTGCAGCCATCTGTGTGAAGACTATATGGCGCTCACATATTTCTTTCCGATATCTCGGAGATCTTGC [SMV-25]”, the binding signal was determined as 5.4 T/N ratio in data set [1]; 9.1 T/N ratio in data set [2]; 1.9 T/N ratio in data set [3]; 12.4 T/N ratio in data set [4]; 2.4 T/N ratio in data set [5]; 2 T/N ratio in data set [6]. Further, the binding signal was 7.3 T/N ratio in data set [7]; 6.2 T/N ratio in data set [8]; 9.4 T/N ratio in data set [9]; 10.4 T/N ratio in [10]; 3.5 T/N ratio in data set [11]; 5.6 T/N ratio in [12]. In data set [13], the binding signal was 11 T/N ratio. Besides, the pKd in data set [4] was 6.63.
Consider “AGTATACGTATTACCTGCAGCCCATGTTTTGTAGGTGTAATAGGTCATGTTAGGGTTTCTGCGATATCTCGGAGATCTTGC [SMV-21]”, for which the binding signal in data set [1] amounted to 11.8 T/N ratio; in [2], 13.5 T/N ratio; in data set [3] it was 6.6 T/N ratio; in data set [4], 18.1 T/N ratio; in data set [5], 3.8 T/N ratio; in data set [6] it was 12.2 T/N ratio. Further, the binding signal in data set [7] came out at 3 T/N ratio; in [8], 4.6 T/N ratio; in [9], 8.6 T/N ratio; in data set [10], 6.4 T/N ratio; in [11] it was 8.1 T/N ratio; in data set [12], 4.3 T/N ratio. In [13], the binding signal was determined as 11.3 T/N ratio. In addition, the pKd in data set [4] was 7.00.
With “AGTATACGTATTACCTGCAGCTGACCGAGTGTCTGGTCATTTTCGATGTCTGTTGTTAGGCCGATATCTCGGAGATCTTGC [SMV-26]”, the binding signal in data set [1] was found to be 2.4 T/N ratio; in [2], 2.8 T/N ratio; in data set [3] it was 2.4 T/N ratio; in data set [4], 4.1 T/N ratio; in data set [5] it was 1.5 T/N ratio; in data set [6] it was 1.3 T/N ratio. Also, the binding signal in data set [7] was 2.8 T/N ratio; in data set [8], 1.2 T/N ratio; in data set [9], 2.1 T/N ratio; in [10], 3.2 T/N ratio; in data set [11], 1.8 T/N ratio; in data set [12], 1.1 T/N ratio. For the same sequence, in data set [13], the binding signal was 2.8 T/N ratio. Also, the pKd in [4] was 6.55.
